T1: murine CD300LB stably expressed on Jurkat cells (mouse, UniProt Q3U497 18-209)
T1 construct: also called muCD300LB; mouse CD300LB
T1 sequence: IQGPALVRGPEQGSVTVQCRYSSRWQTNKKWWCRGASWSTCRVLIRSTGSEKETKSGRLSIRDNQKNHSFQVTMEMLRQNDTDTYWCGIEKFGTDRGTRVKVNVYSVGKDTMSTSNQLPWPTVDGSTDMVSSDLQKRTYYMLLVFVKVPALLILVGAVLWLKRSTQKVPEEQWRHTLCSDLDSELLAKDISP

T2: recombinant human CD300LB overexpressed on Jurkat cells (human, UniProt A8K4G0 18-201)
T2 construct: also called huCD300LB; huCD300LB-expressing Jurkat cells
T2 sequence: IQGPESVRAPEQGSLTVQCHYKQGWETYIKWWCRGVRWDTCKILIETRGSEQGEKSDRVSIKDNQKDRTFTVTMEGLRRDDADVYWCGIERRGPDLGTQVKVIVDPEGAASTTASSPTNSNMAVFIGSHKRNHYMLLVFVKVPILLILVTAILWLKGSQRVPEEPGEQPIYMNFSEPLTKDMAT

T3: recombinant murine CD300LB overexpressed on BaF/3 cells (mouse, UniProt Q3U497 18-209)
T3 sequence: T1 sequence

B1: anti-CD300LB antibody CD-13 (antibody, V domains shown)
VH: QIQLVQSGPELKKPGETVKISCKASGYTFTDYSMHWVKQAPGKGFKWMAWINTETGAPTHADDFRGRFAFSLETSASTAFLQISNLKTEDTATYFCVTFGKSYGMNYWGQGTSVTVSS
VL: DIVLTQSPASLSVSLGQRATISCRASKSVGSSGSSYLHWYQQKPGQPPKLLIYLASNLESGVPARFSGSGSGTEFTLNIHPVEEEDAATYYCQHNAEVPPTFGGGTKLEIK
B2: anti-CD300LB antibody CD-14 (antibody, V domains shown)
VH: QIQLVQSGPELKKPGETVKISCKASGYTFTDYSLHWVKQTPEKNLKWMAWINTETGAPTYADDFKGRFAFSLETSSNTAYLLINNLKNEDTATYFCALTMVNYWGQGTTLTVSS
VL: DIVMTQSQKFMSTSVGDRVSVTCKASQNVGIRVAWHQQKPGQSPKTLIYSTSYRYSGVPDRFTGSGSGTEFILTISNVQSEDLAEYFCQQYNSYPYTFGGGTKLEIK
B3: anti-CD300LB antibody CD-17 (antibody, V domains shown)
VH: QIQLVQSGPELKKPGETVKISCKASGYTLTDYSMHWVKQAPGKGLKWMGWINTETGEPRYGDDFKGRFAFSLETSASSAYLQINNLKNDDTATYFCATYGRSYGMDFWGQGTSVTVSS
VL: DIVLTQSPASLAVSLGQRATISCRASKSVSPSGHSYMHWYQQKPGQPPKLLIYLASNLKSGVPARFSGSGSGTDFTLNIHPVEEGDAATYYCQHNRELPPTFGGGSKLEIK
B4: anti-CD300LB antibody CD-18 (antibody, V domains shown)
VH: DVQLQESGPDLVKPSQSLSLTCTVTGYSITSGYSWHWIRQFPDNKLEWMGYILSRGDTNFNPSLKSRISITRSTSNNQFFLHFNSVTTEDTATYYCARDFFDYWGQGTTLTVSS
VL: DVLMTQTPLSLPVSLGDQASISCRSSQSIVHSNGNTYLEWYLQKPGQSPKLLIYKVSDRFSGVPDRFSGSGSGTDFTLKISRVEAEDLGVYFCFQGSHVPYTFGGGTKLEIK

What was measured:
[1] = molecular target: T1, murine CD300LB stably expressed on …; experiment: flow cytometry, stable Jurkat cells, 10 ug/mL, isotype subtracted
Experimental: Purified anti-CD300LB antibodies of the present disclosure were analyzed for cross-reactivity to other murine CD300 family members stably expressed in Jurkat cells (generation of which is described above). Cells were counted and labeled with 200 nM CFSE, 500 nM VioBlue, or a combination of the two to discriminate between muCD300LB, Parental cells, CD300F, and the other CD300 family members. Cells were washed thoroughly with PBS containing 2% fetal bovine serum then resuspended at a total of 240,000 cells per well. Purified antibodies at 10 μg/mL were added and incubated for one hour before the cells were washed twice again and stained with an APC-labeled anti-mouse secondary. Cells were then analyzed using a BD FACSCanto II. Antibodies were analyzed for specific binding to muCD300LB by FlowJo software by gating on live cells, then the APC gMFI calculated for each labeled population by subtracting the gMFI of the isotype control. The gMFI results of the analysis are presented below in Table 4.

[2] = molecular target: T1, murine CD300LB stably expressed on …; experiment: flow cytometry, stable Jurkat cells, supernatant or 10 ug/mL, isotype subtracted
Experimental: (§1) Purified anti-CD300LB antibodies of the present disclosure were also evaluated for species cross-reactivity to mouse and human CD300LB stably expressed in Jurkat cells (generation of which is described above). Cells were counted and labeled with 200 nM CFSE, 500 nM VioBlue, or a combination of the two to discriminate between human CD300LB, Parental cells and mouse CD300LB. Cells were washed thoroughly with PBS containing 2% fetal bovine serum then resuspended at a total of 240,000 cells per well. Hybridoma supernatants (100 L) or purified antibodies at 10 μg/mL were added and incubated for one hour before the cells were washed again and stained with an APC-labeled anti-human or anti-mouse secondary. Cells were then analyzed using a BD FACSCanto II. Antibodies were analyzed for binding to mouse or human CD300LB by FlowJo software by gating on live cells, then the APC gMFI calculated for each labeled population by subtraction of the gMFI of the appropriate isotype control.

[3] = molecular target: T2, recombinant human CD300LB overexpressed …; experiment: as above
Experimental: as §1

[4] = molecular target: T3, recombinant murine CD300LB …; experiment: cell-based or functional assay

Binder | gMFI [1] [gMFI] | gMFI [2] [gMFI] | gMFI [3] [gMFI] | Luminescence in BaF/3 [4]
B1 | 7600 | 1190 | 324 | 22400
B2 | 9550 | 950 | 59 | 19700
B3 | 7920 | 1680 | 13 | 24700
B4 | 2520 | 643 | 114 | 13000

From US20240254227A1 (Alector, published 2024)
